This note sets out measurements from paper doi:10.1101/2025.11.03.686288.

Assay [1] has as its target N-terminal GST-tagged PEX38 full-length (T. brucei). As to the kind of experiment: AlphaScreen or HTRF. A general note: Bead proximity is the source of the signal in Alpha formats.
Assay [2] has as its target C-terminal His6-tagged PEX19 full-length (T. brucei). Nature of the assay: AlphaScreen or HTRF.
In assay [3] the target is TbPEX38 (65-134) (T. brucei). As to the kind of experiment: ITC.

Regarding “C-terminal His6-tagged PEX19 N50 (domain or fragment)”, the fold weaker interaction with PEX38^FL than PEX19^FL (AlphaScreen signal) in assay [1] amounted to 10 fold.

GST-PEX3Δ1-44 (domain or fragment) returned a fold higher affinity for PEX19 than PEX38 in assay [2] of 30 fold.

Take “TbPEX19 (1-50-SGGY) (domain or fragment)”: the Kd in assay [3] turned out to be 3 µM.

As to TbPEX38 (65-134) (domain or fragment), the IC50 in assay [2] was 0.446 µM.

Substance “untagged PEX38 full-length (natural protein)” came in with an IC50 in assay [2] of 0.95 µM.

A word on the Kd: it is the free concentration of one partner at which half of the binding sites on the other are occupied at equilibrium, for simple one-to-one binding. High values mean a looser complex, low ones a tighter complex. The term IC50 denotes the concentration at which inhibition is half-maximal.
